From patent US20190225675A1 (TUFTS UNIVERSITY, published 2019)

Legend:
[1] = target: T1, Clostridium difficile toxin A (TcdA) (Clostridium difficile, UniProt P16154 1-2710); test: ELISA on plates coated with TcdA, HRP-conjugated detection antibody, A450
T1 construct: mature

[2] = target: Clostridium difficile toxin B (TcdB) (Clostridium difficile, UniProt P18177 2-2366)
Clostridium difficile toxin B (TcdB), sequence (P18177 2-2366): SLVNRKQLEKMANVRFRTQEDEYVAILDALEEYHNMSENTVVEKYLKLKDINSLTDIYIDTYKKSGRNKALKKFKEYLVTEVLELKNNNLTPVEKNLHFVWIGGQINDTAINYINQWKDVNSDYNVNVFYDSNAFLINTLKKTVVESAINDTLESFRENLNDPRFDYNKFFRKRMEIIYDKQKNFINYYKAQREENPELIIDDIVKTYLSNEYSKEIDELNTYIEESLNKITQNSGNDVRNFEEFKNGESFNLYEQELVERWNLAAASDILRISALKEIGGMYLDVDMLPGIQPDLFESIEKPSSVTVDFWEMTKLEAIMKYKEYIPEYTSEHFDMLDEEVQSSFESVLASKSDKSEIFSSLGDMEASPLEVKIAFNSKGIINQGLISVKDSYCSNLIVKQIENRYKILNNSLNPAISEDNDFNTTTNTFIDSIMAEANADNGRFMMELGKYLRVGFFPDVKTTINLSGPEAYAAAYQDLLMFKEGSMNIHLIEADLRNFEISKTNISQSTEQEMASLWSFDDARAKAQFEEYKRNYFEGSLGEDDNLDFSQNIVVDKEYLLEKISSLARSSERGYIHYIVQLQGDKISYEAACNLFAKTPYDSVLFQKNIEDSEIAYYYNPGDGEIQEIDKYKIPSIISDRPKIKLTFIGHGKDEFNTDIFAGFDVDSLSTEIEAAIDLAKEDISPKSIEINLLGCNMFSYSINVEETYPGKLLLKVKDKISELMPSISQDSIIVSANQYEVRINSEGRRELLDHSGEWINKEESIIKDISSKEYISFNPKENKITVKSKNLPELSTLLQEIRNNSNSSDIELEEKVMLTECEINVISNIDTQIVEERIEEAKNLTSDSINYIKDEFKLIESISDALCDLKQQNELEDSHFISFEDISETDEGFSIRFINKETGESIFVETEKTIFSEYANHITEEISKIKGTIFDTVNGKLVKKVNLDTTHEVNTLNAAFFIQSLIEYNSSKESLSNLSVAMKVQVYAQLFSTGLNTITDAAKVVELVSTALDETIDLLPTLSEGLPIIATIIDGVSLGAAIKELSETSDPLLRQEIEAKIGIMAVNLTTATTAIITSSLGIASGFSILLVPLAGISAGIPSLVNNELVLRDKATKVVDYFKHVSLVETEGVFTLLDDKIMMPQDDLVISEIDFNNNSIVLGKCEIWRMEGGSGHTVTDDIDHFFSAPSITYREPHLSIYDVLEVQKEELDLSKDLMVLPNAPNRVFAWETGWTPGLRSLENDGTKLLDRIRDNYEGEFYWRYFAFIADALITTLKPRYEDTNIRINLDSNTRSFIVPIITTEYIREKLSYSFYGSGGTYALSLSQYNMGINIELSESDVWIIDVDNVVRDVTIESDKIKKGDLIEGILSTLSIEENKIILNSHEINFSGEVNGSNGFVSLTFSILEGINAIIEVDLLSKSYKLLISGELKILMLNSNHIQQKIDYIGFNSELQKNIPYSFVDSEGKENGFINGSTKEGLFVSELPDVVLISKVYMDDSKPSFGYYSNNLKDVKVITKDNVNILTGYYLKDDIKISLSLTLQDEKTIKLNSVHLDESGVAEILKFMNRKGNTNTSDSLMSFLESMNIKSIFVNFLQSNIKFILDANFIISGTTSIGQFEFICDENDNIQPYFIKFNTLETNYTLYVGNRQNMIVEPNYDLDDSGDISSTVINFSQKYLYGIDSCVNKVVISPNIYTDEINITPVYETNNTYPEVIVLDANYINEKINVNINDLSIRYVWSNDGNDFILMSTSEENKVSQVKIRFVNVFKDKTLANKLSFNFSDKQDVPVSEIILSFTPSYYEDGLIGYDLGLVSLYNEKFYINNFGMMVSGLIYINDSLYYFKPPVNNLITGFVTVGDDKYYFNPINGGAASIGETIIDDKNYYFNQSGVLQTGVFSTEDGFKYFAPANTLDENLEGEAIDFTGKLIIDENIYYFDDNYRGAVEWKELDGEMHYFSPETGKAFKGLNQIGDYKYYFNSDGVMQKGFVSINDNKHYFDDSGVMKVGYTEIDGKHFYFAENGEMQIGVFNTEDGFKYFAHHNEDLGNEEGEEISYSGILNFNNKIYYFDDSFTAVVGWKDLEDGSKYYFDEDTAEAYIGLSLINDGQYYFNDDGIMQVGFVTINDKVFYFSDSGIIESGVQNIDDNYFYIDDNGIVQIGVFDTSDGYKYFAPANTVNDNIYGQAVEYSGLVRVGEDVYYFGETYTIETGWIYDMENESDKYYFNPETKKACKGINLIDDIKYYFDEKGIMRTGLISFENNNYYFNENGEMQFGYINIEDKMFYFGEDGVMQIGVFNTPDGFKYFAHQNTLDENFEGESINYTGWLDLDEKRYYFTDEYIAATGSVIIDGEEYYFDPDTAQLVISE

T1 sequence (P16154 whole entry): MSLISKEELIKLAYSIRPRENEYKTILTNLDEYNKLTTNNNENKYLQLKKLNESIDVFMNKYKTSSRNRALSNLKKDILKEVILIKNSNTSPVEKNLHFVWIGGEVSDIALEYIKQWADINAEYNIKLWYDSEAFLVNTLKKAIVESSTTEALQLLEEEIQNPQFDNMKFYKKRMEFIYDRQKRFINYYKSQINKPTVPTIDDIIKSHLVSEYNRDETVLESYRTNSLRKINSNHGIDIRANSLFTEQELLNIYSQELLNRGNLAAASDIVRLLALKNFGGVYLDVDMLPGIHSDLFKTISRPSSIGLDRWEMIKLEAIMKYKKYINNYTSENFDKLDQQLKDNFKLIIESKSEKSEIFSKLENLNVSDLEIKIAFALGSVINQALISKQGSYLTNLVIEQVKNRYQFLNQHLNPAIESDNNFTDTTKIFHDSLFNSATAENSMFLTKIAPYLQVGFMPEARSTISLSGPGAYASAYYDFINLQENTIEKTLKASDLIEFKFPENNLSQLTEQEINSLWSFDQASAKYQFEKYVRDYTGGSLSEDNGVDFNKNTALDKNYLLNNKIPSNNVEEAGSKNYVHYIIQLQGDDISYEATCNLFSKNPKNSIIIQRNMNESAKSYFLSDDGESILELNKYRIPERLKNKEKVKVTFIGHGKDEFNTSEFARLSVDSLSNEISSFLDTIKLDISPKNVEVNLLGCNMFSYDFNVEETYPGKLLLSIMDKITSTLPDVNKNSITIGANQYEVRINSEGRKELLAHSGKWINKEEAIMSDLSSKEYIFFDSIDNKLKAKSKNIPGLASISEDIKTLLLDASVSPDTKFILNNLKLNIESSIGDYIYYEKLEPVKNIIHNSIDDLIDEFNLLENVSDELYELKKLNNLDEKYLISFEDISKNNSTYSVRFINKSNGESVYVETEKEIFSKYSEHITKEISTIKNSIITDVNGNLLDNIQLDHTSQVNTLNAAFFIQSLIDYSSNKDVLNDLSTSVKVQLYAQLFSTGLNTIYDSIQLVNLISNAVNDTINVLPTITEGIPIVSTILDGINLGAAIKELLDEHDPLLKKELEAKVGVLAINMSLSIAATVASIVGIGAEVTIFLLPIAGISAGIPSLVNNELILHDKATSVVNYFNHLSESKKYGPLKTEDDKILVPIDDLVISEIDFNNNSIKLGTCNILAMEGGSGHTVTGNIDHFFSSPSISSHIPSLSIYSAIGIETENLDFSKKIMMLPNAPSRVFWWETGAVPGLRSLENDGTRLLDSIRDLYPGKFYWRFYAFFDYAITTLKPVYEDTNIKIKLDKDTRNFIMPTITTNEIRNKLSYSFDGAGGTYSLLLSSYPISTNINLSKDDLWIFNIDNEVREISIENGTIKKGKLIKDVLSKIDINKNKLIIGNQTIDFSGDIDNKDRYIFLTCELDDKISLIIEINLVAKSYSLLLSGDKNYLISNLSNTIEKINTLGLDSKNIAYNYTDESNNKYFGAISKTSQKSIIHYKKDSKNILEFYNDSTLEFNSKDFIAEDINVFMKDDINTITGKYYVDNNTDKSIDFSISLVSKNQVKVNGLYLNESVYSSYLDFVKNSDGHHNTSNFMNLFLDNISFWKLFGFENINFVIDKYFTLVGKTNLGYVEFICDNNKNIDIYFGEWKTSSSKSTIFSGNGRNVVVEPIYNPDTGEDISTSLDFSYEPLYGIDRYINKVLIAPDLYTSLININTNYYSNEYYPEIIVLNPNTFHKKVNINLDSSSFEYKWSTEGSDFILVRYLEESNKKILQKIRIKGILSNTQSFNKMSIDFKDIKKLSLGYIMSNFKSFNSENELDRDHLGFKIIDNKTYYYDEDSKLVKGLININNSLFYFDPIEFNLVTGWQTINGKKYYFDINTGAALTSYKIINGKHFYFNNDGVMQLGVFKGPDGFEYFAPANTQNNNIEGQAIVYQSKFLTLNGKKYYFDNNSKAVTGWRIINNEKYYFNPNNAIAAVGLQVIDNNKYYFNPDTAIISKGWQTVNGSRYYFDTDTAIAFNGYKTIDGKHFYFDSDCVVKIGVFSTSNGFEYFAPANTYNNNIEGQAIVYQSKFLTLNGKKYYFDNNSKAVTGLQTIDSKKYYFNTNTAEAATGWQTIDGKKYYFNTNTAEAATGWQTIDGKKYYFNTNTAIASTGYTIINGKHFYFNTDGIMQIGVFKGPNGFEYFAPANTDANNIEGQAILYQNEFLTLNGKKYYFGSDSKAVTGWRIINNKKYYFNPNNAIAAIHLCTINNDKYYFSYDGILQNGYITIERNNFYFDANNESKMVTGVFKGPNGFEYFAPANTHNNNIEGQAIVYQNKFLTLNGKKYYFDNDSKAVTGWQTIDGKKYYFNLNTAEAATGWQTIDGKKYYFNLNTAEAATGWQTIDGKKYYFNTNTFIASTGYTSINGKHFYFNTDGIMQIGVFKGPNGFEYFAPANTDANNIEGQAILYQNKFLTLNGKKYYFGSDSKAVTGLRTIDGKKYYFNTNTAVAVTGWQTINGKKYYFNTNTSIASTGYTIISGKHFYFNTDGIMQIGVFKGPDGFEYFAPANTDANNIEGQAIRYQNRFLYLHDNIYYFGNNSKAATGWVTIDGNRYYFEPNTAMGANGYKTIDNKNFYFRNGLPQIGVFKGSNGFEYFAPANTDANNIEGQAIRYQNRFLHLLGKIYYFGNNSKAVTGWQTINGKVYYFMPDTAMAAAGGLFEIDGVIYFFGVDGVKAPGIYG

B1: VNA-TcdB (toxin B-binding heterodimer, 5D+E3) (other)
chain: QGVQSQLQLVESGGGLVQPGGSLRLSCEASGFTLDYYGIGWFRQPPGKEREAVSYISASARTILYADSVKGRFTISRDNAKNAVYLQMNSLKREDTAVYYCARRRFSASSVNRWLADDYDVWGRGTQVAVSSEPKTPKPQGGGGSGGGGSGGGGSQGVQSQVQLVESGGGLVQTGGSLRLSCASSGSIAGFETVTWSRQAPGKSLQWVASMTKTNNEIYSDSVKGRFIISRDNAKNTVYLQMNSLKPEDTGVYFCKGPELRGQGIQVTVSSEPKTPKPQ
B1 was tested, and the binding result [1] was “no binding (tested: 125 nM)” and the “EC50 (read off the curve)” value [2] was about 0.3 nM.
